We go through 1 substance from patent publication US20050154187A1.

Assay [1] has as its target soluble VEGF receptor Flt-1 (sFlt-1) (UniProt P17948). Put plainly: ELISA, plate-coated sFlt-1, detection with DHFR-specific mAb. Background: ELISA stands for enzyme-linked immunosorbent assay.
In assay [2] the target is soluble VEGF receptor KDR (sKDR) (UniProt P35968). Put plainly: ELISA, plate-coated sKDR, detection with DHFR-specific mAb.

Sequence of dihydrofolate reductase (DHFR), negative control protein (P00375 1-186 limits assumed): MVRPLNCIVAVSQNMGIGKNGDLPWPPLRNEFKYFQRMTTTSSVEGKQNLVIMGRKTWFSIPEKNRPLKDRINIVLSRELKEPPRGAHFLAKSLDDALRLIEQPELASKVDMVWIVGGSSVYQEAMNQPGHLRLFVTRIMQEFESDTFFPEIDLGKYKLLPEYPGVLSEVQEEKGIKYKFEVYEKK

“dihydrofolate reductase (DHFR), negative control protein (from UniProt P00375 1-186) (enzyme)”: the OD492 nm in assay [1] was found to be 0.088 OD492 nm; in assay [2] it was 0.074 OD492 nm.
